T1: human IL-18BP (human, UniProt O95998 31-194)
T1 construct: UniProt printed as 095998; also called hIL-18BP
T1 sequence: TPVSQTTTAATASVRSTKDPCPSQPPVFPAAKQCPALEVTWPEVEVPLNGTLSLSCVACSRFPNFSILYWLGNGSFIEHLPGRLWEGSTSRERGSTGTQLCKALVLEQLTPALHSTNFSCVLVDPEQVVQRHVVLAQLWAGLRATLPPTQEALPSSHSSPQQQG


Target: T1, human IL-18BP
Test: BLI, apparent KD

Binder	Kd [nM]
SA301a HC-S98I (antibody, name in Kabat numbering, V domains shown, IgG1 kappa) VH: QVQLQESGPGLVKPSQTLSLTCTVSGYSITSDYNSHWIRQPPGKGLEWIGYIHYSGSTNYNPSLKSRVTISRDTSKNQFSLKLSSVTAADTAVYYCARNYGIIYVNYFDYWGQGTLVTVSS VL: EIVLTQSPATLSLSPGERATLSCSASSSVSYMYWYQQKPGQAPRPLIYRTSNLASGIPARFSGSGSGTDFTLTISSLEPEDFAVYYCQQYHSYPTFGGGTKVEIK	2.1
SA301a HC-S98K (antibody, name in Kabat numbering, V domains shown, IgG1 kappa) VH: QVQLQESGPGLVKPSQTLSLTCTVSGYSITSDYNSHWIRQPPGKGLEWIGYIHYSGSTNYNPSLKSRVTISRDTSKNQFSLKLSSVTAADTAVYYCARNYGKIYVNYFDYWGQGTLVTVSS VL: EIVLTQSPATLSLSPGERATLSCSASSSVSYMYWYQQKPGQAPRPLIYRTSNLASGIPARFSGSGSGTDFTLTISSLEPEDFAVYYCQQYHSYPTFGGGTKVEIK	5.41
SA301a HC-S98N (antibody, name in Kabat numbering, V domains shown, IgG1 kappa) VH: QVQLQESGPGLVKPSQTLSLTCTVSGYSITSDYNSHWIRQPPGKGLEWIGYIHYSGSTNYNPSLKSRVTISRDTSKNQFSLKLSSVTAADTAVYYCARNYGNIYVNYFDYWGQGTLVTVSS VL: EIVLTQSPATLSLSPGERATLSCSASSSVSYMYWYQQKPGQAPRPLIYRTSNLASGIPARFSGSGSGTDFTLTISSLEPEDFAVYYCQQYHSYPTFGGGTKVEIK	2.98
SA301a HC-S98P (antibody, name in Kabat numbering, V domains shown, IgG1 kappa) VH: QVQLQESGPGLVKPSQTLSLTCTVSGYSITSDYNSHWIRQPPGKGLEWIGYIHYSGSTNYNPSLKSRVTISRDTSKNQFSLKLSSVTAADTAVYYCARNYGPIYVNYFDYWGQGTLVTVSS VL: EIVLTQSPATLSLSPGERATLSCSASSSVSYMYWYQQKPGQAPRPLIYRTSNLASGIPARFSGSGSGTDFTLTISSLEPEDFAVYYCQQYHSYPTFGGGTKVEIK	0.55
SA301a HC-S98Q (antibody, name in Kabat numbering, V domains shown, IgG1 kappa) VH: QVQLQESGPGLVKPSQTLSLTCTVSGYSITSDYNSHWIRQPPGKGLEWIGYIHYSGSTNYNPSLKSRVTISRDTSKNQFSLKLSSVTAADTAVYYCARNYGQIYVNYFDYWGQGTLVTVSS VL: EIVLTQSPATLSLSPGERATLSCSASSSVSYMYWYQQKPGQAPRPLIYRTSNLASGIPARFSGSGSGTDFTLTISSLEPEDFAVYYCQQYHSYPTFGGGTKVEIK	12.3
SA301a HC-S98T (antibody, name in Kabat numbering, V domains shown, IgG1 kappa) VH: QVQLQESGPGLVKPSQTLSLTCTVSGYSITSDYNSHWIRQPPGKGLEWIGYIHYSGSTNYNPSLKSRVTISRDTSKNQFSLKLSSVTAADTAVYYCARNYGTIYVNYFDYWGQGTLVTVSS VL: EIVLTQSPATLSLSPGERATLSCSASSSVSYMYWYQQKPGQAPRPLIYRTSNLASGIPARFSGSGSGTDFTLTISSLEPEDFAVYYCQQYHSYPTFGGGTKVEIK	26.9
SA301a HC-S98Y (antibody, name in Kabat numbering, V domains shown, IgG1 kappa) VH: QVQLQESGPGLVKPSQTLSLTCTVSGYSITSDYNSHWIRQPPGKGLEWIGYIHYSGSTNYNPSLKSRVTISRDTSKNQFSLKLSSVTAADTAVYYCARNYGYIYVNYFDYWGQGTLVTVSS VL: EIVLTQSPATLSLSPGERATLSCSASSSVSYMYWYQQKPGQAPRPLIYRTSNLASGIPARFSGSGSGTDFTLTISSLEPEDFAVYYCQQYHSYPTFGGGTKVEIK	0.02
SA301a HC-Y96A (antibody, name in Kabat numbering, V domains shown, IgG1 kappa) VH: QVQLQESGPGLVKPSQTLSLTCTVSGYSITSDYNSHWIRQPPGKGLEWIGYIHYSGSTNYNPSLKSRVTISRDTSKNQFSLKLSSVTAADTAVYYCARNAGSIYVNYFDYWGQGTLVTVSS VL: EIVLTQSPATLSLSPGERATLSCSASSSVSYMYWYQQKPGQAPRPLIYRTSNLASGIPARFSGSGSGTDFTLTISSLEPEDFAVYYCQQYHSYPTFGGGTKVEIK	0.47
SA301a HC-Y96E (antibody, name in Kabat numbering, V domains shown, IgG1 kappa) VH: QVQLQESGPGLVKPSQTLSLTCTVSGYSITSDYNSHWIRQPPGKGLEWIGYIHYSGSTNYNPSLKSRVTISRDTSKNQFSLKLSSVTAADTAVYYCARNEGSIYVNYFDYWGQGTLVTVSS VL: EIVLTQSPATLSLSPGERATLSCSASSSVSYMYWYQQKPGQAPRPLIYRTSNLASGIPARFSGSGSGTDFTLTISSLEPEDFAVYYCQQYHSYPTFGGGTKVEIK	0.31
SA301a HC-Y96F (antibody, name in Kabat numbering, V domains shown, IgG1 kappa) VH: QVQLQESGPGLVKPSQTLSLTCTVSGYSITSDYNSHWIRQPPGKGLEWIGYIHYSGSTNYNPSLKSRVTISRDTSKNQFSLKLSSVTAADTAVYYCARNFGSIYVNYFDYWGQGTLVTVSS VL: EIVLTQSPATLSLSPGERATLSCSASSSVSYMYWYQQKPGQAPRPLIYRTSNLASGIPARFSGSGSGTDFTLTISSLEPEDFAVYYCQQYHSYPTFGGGTKVEIK	0.13
SA301a HC-Y96G (antibody, name in Kabat numbering, V domains shown, IgG1 kappa) VH: QVQLQESGPGLVKPSQTLSLTCTVSGYSITSDYNSHWIRQPPGKGLEWIGYIHYSGSTNYNPSLKSRVTISRDTSKNQFSLKLSSVTAADTAVYYCARNGGSIYVNYFDYWGQGTLVTVSS VL: EIVLTQSPATLSLSPGERATLSCSASSSVSYMYWYQQKPGQAPRPLIYRTSNLASGIPARFSGSGSGTDFTLTISSLEPEDFAVYYCQQYHSYPTFGGGTKVEIK	2.5
SA301a HC-Y96H (antibody, name in Kabat numbering, V domains shown, IgG1 kappa) VH: QVQLQESGPGLVKPSQTLSLTCTVSGYSITSDYNSHWIRQPPGKGLEWIGYIHYSGSTNYNPSLKSRVTISRDTSKNQFSLKLSSVTAADTAVYYCARNHGSIYVNYFDYWGQGTLVTVSS VL: EIVLTQSPATLSLSPGERATLSCSASSSVSYMYWYQQKPGQAPRPLIYRTSNLASGIPARFSGSGSGTDFTLTISSLEPEDFAVYYCQQYHSYPTFGGGTKVEIK	1.24
SA301a HC-Y96I (antibody, name in Kabat numbering, V domains shown, IgG1 kappa) VH: QVQLQESGPGLVKPSQTLSLTCTVSGYSITSDYNSHWIRQPPGKGLEWIGYIHYSGSTNYNPSLKSRVTISRDTSKNQFSLKLSSVTAADTAVYYCARNIGSIYVNYFDYWGQGTLVTVSS VL: EIVLTQSPATLSLSPGERATLSCSASSSVSYMYWYQQKPGQAPRPLIYRTSNLASGIPARFSGSGSGTDFTLTISSLEPEDFAVYYCQQYHSYPTFGGGTKVEIK	4.02
SA301a HC-Y96K (antibody, name in Kabat numbering, V domains shown, IgG1 kappa) VH: QVQLQESGPGLVKPSQTLSLTCTVSGYSITSDYNSHWIRQPPGKGLEWIGYIHYSGSTNYNPSLKSRVTISRDTSKNQFSLKLSSVTAADTAVYYCARNKGSIYVNYFDYWGQGTLVTVSS VL: EIVLTQSPATLSLSPGERATLSCSASSSVSYMYWYQQKPGQAPRPLIYRTSNLASGIPARFSGSGSGTDFTLTISSLEPEDFAVYYCQQYHSYPTFGGGTKVEIK	15.2
SA301a HC-Y96L (antibody, name in Kabat numbering, V domains shown, IgG1 kappa) VH: QVQLQESGPGLVKPSQTLSLTCTVSGYSITSDYNSHWIRQPPGKGLEWIGYIHYSGSTNYNPSLKSRVTISRDTSKNQFSLKLSSVTAADTAVYYCARNLGSIYVNYFDYWGQGTLVTVSS VL: EIVLTQSPATLSLSPGERATLSCSASSSVSYMYWYQQKPGQAPRPLIYRTSNLASGIPARFSGSGSGTDFTLTISSLEPEDFAVYYCQQYHSYPTFGGGTKVEIK	1.08
SA301a HC-Y96N (antibody, name in Kabat numbering, V domains shown, IgG1 kappa) VH: QVQLQESGPGLVKPSQTLSLTCTVSGYSITSDYNSHWIRQPPGKGLEWIGYIHYSGSTNYNPSLKSRVTISRDTSKNQFSLKLSSVTAADTAVYYCARNNGSIYVNYFDYWGQGTLVTVSS VL: EIVLTQSPATLSLSPGERATLSCSASSSVSYMYWYQQKPGQAPRPLIYRTSNLASGIPARFSGSGSGTDFTLTISSLEPEDFAVYYCQQYHSYPTFGGGTKVEIK	2.8
SA301a HC-Y96P (antibody, name in Kabat numbering, V domains shown, IgG1 kappa) VH: QVQLQESGPGLVKPSQTLSLTCTVSGYSITSDYNSHWIRQPPGKGLEWIGYIHYSGSTNYNPSLKSRVTISRDTSKNQFSLKLSSVTAADTAVYYCARNPGSIYVNYFDYWGQGTLVTVSS VL: EIVLTQSPATLSLSPGERATLSCSASSSVSYMYWYQQKPGQAPRPLIYRTSNLASGIPARFSGSGSGTDFTLTISSLEPEDFAVYYCQQYHSYPTFGGGTKVEIK	0.46
SA301a HC-Y96Q (antibody, name in Kabat numbering, V domains shown, IgG1 kappa) VH: QVQLQESGPGLVKPSQTLSLTCTVSGYSITSDYNSHWIRQPPGKGLEWIGYIHYSGSTNYNPSLKSRVTISRDTSKNQFSLKLSSVTAADTAVYYCARNQGSIYVNYFDYWGQGTLVTVSS VL: EIVLTQSPATLSLSPGERATLSCSASSSVSYMYWYQQKPGQAPRPLIYRTSNLASGIPARFSGSGSGTDFTLTISSLEPEDFAVYYCQQYHSYPTFGGGTKVEIK	0.65
SA301a HC-Y96R (antibody, name in Kabat numbering, V domains shown, IgG1 kappa) VH: QVQLQESGPGLVKPSQTLSLTCTVSGYSITSDYNSHWIRQPPGKGLEWIGYIHYSGSTNYNPSLKSRVTISRDTSKNQFSLKLSSVTAADTAVYYCARNRGSIYVNYFDYWGQGTLVTVSS VL: EIVLTQSPATLSLSPGERATLSCSASSSVSYMYWYQQKPGQAPRPLIYRTSNLASGIPARFSGSGSGTDFTLTISSLEPEDFAVYYCQQYHSYPTFGGGTKVEIK	0.6
SA301a HC-Y96S (antibody, name in Kabat numbering, V domains shown, IgG1 kappa) VH: QVQLQESGPGLVKPSQTLSLTCTVSGYSITSDYNSHWIRQPPGKGLEWIGYIHYSGSTNYNPSLKSRVTISRDTSKNQFSLKLSSVTAADTAVYYCARNSGSIYVNYFDYWGQGTLVTVSS VL: EIVLTQSPATLSLSPGERATLSCSASSSVSYMYWYQQKPGQAPRPLIYRTSNLASGIPARFSGSGSGTDFTLTISSLEPEDFAVYYCQQYHSYPTFGGGTKVEIK	0.87
SA301a HC-Y96T (antibody, name in Kabat numbering, V domains shown, IgG1 kappa) VH: QVQLQESGPGLVKPSQTLSLTCTVSGYSITSDYNSHWIRQPPGKGLEWIGYIHYSGSTNYNPSLKSRVTISRDTSKNQFSLKLSSVTAADTAVYYCARNTGSIYVNYFDYWGQGTLVTVSS VL: EIVLTQSPATLSLSPGERATLSCSASSSVSYMYWYQQKPGQAPRPLIYRTSNLASGIPARFSGSGSGTDFTLTISSLEPEDFAVYYCQQYHSYPTFGGGTKVEIK	0.61
SA301a HC-Y96V (antibody, name in Kabat numbering, V domains shown, IgG1 kappa) VH: QVQLQESGPGLVKPSQTLSLTCTVSGYSITSDYNSHWIRQPPGKGLEWIGYIHYSGSTNYNPSLKSRVTISRDTSKNQFSLKLSSVTAADTAVYYCARNVGSIYVNYFDYWGQGTLVTVSS VL: EIVLTQSPATLSLSPGERATLSCSASSSVSYMYWYQQKPGQAPRPLIYRTSNLASGIPARFSGSGSGTDFTLTISSLEPEDFAVYYCQQYHSYPTFGGGTKVEIK	1.68
